Legend:
[1] = target: CD64 (FcγRI) on human primary monocytes and monocyte-derived macrophages (human (endogenous in primary monocytes)) (UniProt P12314)
[2] = target: human KIR3DL1 extracellular domains fused to mouse IgG2a Fc with Avi tag, biotinylated (human) (UniProt P43629); test: SPR; Biacore T200; biotinylated KIR3DL1 immobilised; IOS-1002 as analyte; HBS-EP, 25 °C; steady-state fits, averaged
[3] = target: human KIR3DL1 extracellular domains fused to mouse IgG2a Fc with Avi tag, biotinylated (human) (UniProt P43629); test: SPR; Biacore T200; biotinylated receptors immobilised on Series S CAP chip; IOS-1002 as analyte, 5 concentrations 6 to 0.375 uM; HBS-EP, 25 °C; 1:1 fit

UniProt P43629, sequence (P43629 22-340): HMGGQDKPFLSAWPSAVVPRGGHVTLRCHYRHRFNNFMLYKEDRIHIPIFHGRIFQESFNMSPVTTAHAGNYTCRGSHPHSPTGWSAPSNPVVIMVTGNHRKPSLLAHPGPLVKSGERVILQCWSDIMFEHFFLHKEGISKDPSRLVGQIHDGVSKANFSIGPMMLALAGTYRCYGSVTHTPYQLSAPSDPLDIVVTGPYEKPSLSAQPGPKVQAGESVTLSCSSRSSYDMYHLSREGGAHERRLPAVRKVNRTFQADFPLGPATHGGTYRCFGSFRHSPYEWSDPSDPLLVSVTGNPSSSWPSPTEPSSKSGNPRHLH
UniProt P12314, sequence (P12314 16-374): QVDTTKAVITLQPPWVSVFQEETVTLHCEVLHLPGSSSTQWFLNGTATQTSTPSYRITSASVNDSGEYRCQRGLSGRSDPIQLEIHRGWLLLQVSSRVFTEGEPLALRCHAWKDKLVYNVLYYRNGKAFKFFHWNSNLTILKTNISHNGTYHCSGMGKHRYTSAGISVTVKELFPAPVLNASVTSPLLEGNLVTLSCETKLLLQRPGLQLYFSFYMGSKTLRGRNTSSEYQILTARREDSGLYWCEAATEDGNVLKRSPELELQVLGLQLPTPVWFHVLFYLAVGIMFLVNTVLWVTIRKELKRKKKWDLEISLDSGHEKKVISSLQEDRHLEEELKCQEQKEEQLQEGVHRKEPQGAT

Substance: IOS-1002 (HLA-B57^(A46E/V97R).B2m-IgG4_Fc) (from UniProt P61769 21-119) (Fc fusion)
- macrophage phagocytosis of H460 cells, dose response (EC50) [1]: 3.33 nM
- Kd [2]: 7.48 µM
- Kd [3]: 3.28 µM

Source: publication PMC11352577
